Reference: US7379820 (Pfizer, dated 2008)
Numbering of substitutions follows the chain as printed.

T1: MBP-TRADD (full-length TRADD protein expressed as a MBP fusion) (UniProt Q15628 1-312)
T1 construct: mature; Immobilized on 96 well plates for ELISA
T1 sequence (looked up): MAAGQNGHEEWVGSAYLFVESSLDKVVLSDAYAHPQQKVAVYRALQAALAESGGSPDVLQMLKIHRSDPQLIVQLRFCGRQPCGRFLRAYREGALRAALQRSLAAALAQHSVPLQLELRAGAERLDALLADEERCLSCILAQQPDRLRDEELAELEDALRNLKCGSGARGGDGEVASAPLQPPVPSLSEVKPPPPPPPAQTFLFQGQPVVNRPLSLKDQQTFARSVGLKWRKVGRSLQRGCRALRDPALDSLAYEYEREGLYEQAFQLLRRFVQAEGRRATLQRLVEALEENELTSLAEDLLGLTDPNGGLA

B1: RIP DD E626A (other)
chain: MAIFDNTTSLTDKHLDPIRENLGKHWKNCARKLGFTQSQIDEIDHDYERDGLKAKVYQMLQKWVMREGIKGATVGKLAQALHQCSRIDLLSSLIYVSQNHHHHHHH
notes: Single point alanine mutant of the His-tagged RIP DD construct; soluble mutant
B2: RIP DD K599A (other)
chain: B1 chain with K27A, A54E
notes: Single point alanine mutant of the His-tagged RIP DD construct
B3: RIP DD K627A (other)
chain: B1 chain with A54E, K55A
notes: as for B2
B4: RIP DD R603A (other)
chain: B1 chain with R31A, A54E
notes: as for B1
B5: RIP DD K625A (other)
chain: B1 chain with K53A, A54E
notes: as for B2

Biological target: T1, MBP-TRADD (full-length TRADD protein …)
Assay: ELISA, MBP-TRADD immobilized on 96 well plates
Procedure: RIP DD binding assay. RIP DD binding to TRADD was determined by an enzyme-linked immunosorbent assay (ELISA). Ninety six well plates were coated overnight at 4° C. with 200 ng of MBP-TRADD, MBP-TNFR-1 DD, or MBP-IL1RacP (interleukin-1 receptor accessory protein) in coating buffer (25 mM MOPS pH 7.5, 150 mM NaCl, 10 mM DTT, 0.02% NaN_3). The plates were then incubated in blocking buffer (10 mM MOPS pH 7.5, 150 mM NaCl, 0.05% Tween 20, 0.1% Gelatin, 0.02% NaN_3) for one hour followed by one hour incubation with the different RIP DD proteins in binding buffer (100 mM Tris pH 7.5, 140 mM NaCl, 0.1 mM EDTA, 0.2% Triton X-100, 10 mM DTT). The plates were washed 4 times in 10 mM potassium phosphate buffer pH 7.4, 0.05% Tween 20. The bound His tagged proteins were then incubated for 30 minutes in 10 mM MOPS pH 7.5, 150 mM NaCl, 0.05% Tween 20, 0.02% NaN_3 anti-6× His biotinylated anti mouse antibody and strepavidin conjugated alkaline phosphatase. The plates were washed 4 times in 10 mM potassium phosphate buffer pH 7.4, 0.05% Tween. Tropix CDP-Star/Sapphire II solution was used for the luminescent detection of alkaline phosphatase.
Figure 4: FIGS. 4A and 4B. (A) Effect of the ionic strength on the binding of RIP-DD (30 μg/mL) to MBP-TRADD. (B) ELISA of RIP-DD binding to MBP-TRADD. MBP-TRADD was immobilized at 500 ng/well on 96 well plates. The reference at 100% is the binding of the wild type protein to MBP-TRADD. The values used for the determination of the binding percentage were obtained with ~30 μg/ml of soluble protein. Figure 4: Figure 5: FIG. 5. Sequence alignment of the death domains of FAS (SEQ ID NO:2) and RIP (SEQ ID NO:3). Identical residues and homologous residues are shaded. The helices identified from the NMR structure of FAS DD (Huang et al., 1996) are located above the sequence and the helices identified from the NMR structure of RIP DD are located below the sequence.

Binder	binding result
B1	no binding (tested: ~30 µg/ml of soluble protein)
B2	no binding (tested: ~30 µg/ml of soluble protein)
B3	no binding (tested: ~30 µg/ml of soluble protein)
B4	no binding (tested: ~30 µg/ml of soluble protein)
B5	no binding (tested: ~30 µg/ml of soluble protein)
